Measured values taken from the RNAGym collection of RNA variant scans (doi:10.7554/elife.80360).

B1: HDV Ribozyme (parent)
chain: GGCCGGCAUGGUCCCAGCCUCCUCGCUGGCGCCGGCUGGGCAACAUUCCGAGGGGACCGUCCCCUCGGUAAUGGCGAAUGGGACCCA

Variants of: B1
Experiment: self-cleavage, relative activity (ratio to wild type); higher = more cleavage; co-transcriptional

Row | Variant | self-cleavage
1 | G1U G10A | 0.387
2 | G1A C14A | 0.0573
3 | G1A C14U | 0.415
4 | G1A C22U | 0.0779
5 | G1A C22A | 0.0831
6 | G1A A78G | 0
7 | G1A A78U | 0.0449
8 | G1A A16U | 0
9 | G1A A16C | 0.158
10 | G1C C86G | 0.268
11 | G1C C86A | 0.0978
12 | G1A C13G | 0
13 | G1A C13U | 0.119
14 | G1A C13A | 0.0639
15 | G1C G54U | 0.396
16 | G1C G54C | 0.26
17 | G1A C61A | 0.145
18 | G1A C61U | 0.26
19 | G1A C61G | 0.0831
20 | G1A C15G | 0
21 | G1A A56C | 0.107
22 | G1A A56U | 0.217
23 | G1A A56G | 0
24 | G1C A78G | 0.0573

Row | Variant | self-cleavage
25 | G1C C15G | 0.166
26 | G1C C15A | 0
27 | G1U C14U | 0.434
28 | G1C A56U | 0.17
29 | G1A G10U | 0.153
30 | G1A G10A | 0.151
31 | G1A G10C | 0.35
32 | G1C C49G | 0.0898
33 | G1C C49U | 0.145
34 | G1C U47C | 0.399
35 | G1A G80C | 0.119
36 | G1C A42C | 0.0639
37 | G1U C13A | 0.321
38 | G1A C49U | 0
39 | G1U A16G | 0.256
40 | G1U A16C | 0.277
41 | G1U A16U | 0.262
42 | G1U C3A | 0.654
43 | G1U C3U | 0.696
44 | G1C G34U | 0.0692
45 | G1C C58G | 0.199
46 | G1C C58A | 0.297
47 | G1C C64A | 0.231
48 | G1C C64G | 0.244

Row | Variant | self-cleavage
49 | G1C A77C | 0
50 | G1C A77G | 0
51 | G1A C84G | 0.0978
52 | G1A C84U | 0.229
53 | G1A C84A | 0
54 | G1C U65A | 0
55 | G1C U65G | 0
56 | G1C C19A | 0.201
57 | G1C C19G | 0
58 | G1A A83U | 0
59 | G1A A83G | 0.219
60 | G1A C48U | 0
61 | G1A C48G | 0.199
62 | G1C G59A | 0.19
63 | G1C G59U | 0.0437
64 | G1A G6C | 0.151
65 | G1A G6U | 0
66 | G1U C62G | 0.391
67 | G1U C62A | 0.248
68 | G1U C62U | 0.443
69 | G1A C33U | 0.0594
70 | G1A A42G | 0.115
71 | G1U A43U | 0.225
72 | G1U A43G | 0.147

Row | Variant | self-cleavage
73 | G1U A43C | 0.425
74 | G1C C48A | 0.293
75 | G1U C48A | 0.465
76 | G1A G28A | 0.0332
77 | G1U C24U | 0.409
78 | G1C G80A | 0.0405
79 | G1C G80U | 0.0484
80 | G1C A45U | 0
81 | G1C A45G | 0.192
82 | G1A C41A | 0.222
83 | G1A C41U | 0.237
84 | G1C C75G | 0.178
85 | G1C C75U | 0.227
86 | G1U A70C | 0.302
87 | G1U A70G | 0.536
88 | G1A G50A | 0
89 | G1U C19G | 0.348
90 | G1U C19A | 0.383
91 | G1A U79A | 0.208
92 | G1A U79C | 0.119
93 | G1A G2U | 0.852
94 | G1A G39C | 0
95 | G1C U12C | 0.175
96 | G1A A45G | 0.185

Row | Variant | self-cleavage
97 | G1A A45C | 0.268
98 | G1C U69G | 0.208
99 | G1U C58U | 0.401
100 | G1U C58A | 0.237
101 | G1A C66U | 0.353
102 | G1A G29C | 0.181
103 | G1U A51U | 0.462
104 | G1C G25U | 0.0665
105 | G1C G25A | 0.0755
106 | G1A U20G | 0
107 | G1C U60C | 0.0639
108 | G1C G73A | 0.201
109 | G1U C18G | 0.151
110 | G1U C44A | 0.479
111 | G1U C44G | 0.271
112 | G1C C26A | 0.166
113 | G1C C26G | 0.227
114 | G1A G68A | 0.101
115 | G1A G68C | 0.0978
116 | G1C C41U | 0.229
117 | G1C C41A | 0.123
118 | G1A C85G | 0.101
119 | G1A C85U | 0.0755
120 | G1A G31C | 0.0292

Row | Variant | self-cleavage
121 | G1A G31A | 0.131
122 | G1A G31U | 0
123 | G1A G82C | 0.133
124 | G1A C62A | 0.0791
125 | G1A C62G | 0.0519
126 | G1C G39C | 0.0519
127 | G1A C30G | 0
128 | G1A C30U | 0.0554
129 | G1C C14G | 0.0615
130 | G1C C14A | 0.0811
131 | G1C G50U | 0.231
132 | G1C G50C | 0.342
133 | G1C G50A | 0.277
134 | G1C C33G | 0
135 | G1C C33U | 0
136 | G1A G81A | 0.0462
137 | G1U A77C | 0.494
138 | G1U A77G | 0.406
139 | G1C A51G | 0.396
140 | G1C A51C | 0.133
141 | G1C G76U | 0.115
142 | G1U C33G | 0.248
143 | G1U C33U | 0.436
144 | G1U A42C | 0.332

Row | Variant | self-cleavage
145 | G1U A42G | 0.403
146 | G1A A43C | 0.0415
147 | G1A A43U | 0.0437
148 | G1A A43G | 0.0875
149 | G1A A8C | 0
150 | G1A C32G | 0.113
151 | G1A C32U | 0.133
152 | G1A C32A | 0.0386
153 | G1C G53C | 0.332
154 | G1C G53U | 0.213
155 | G1C G31C | 0
156 | G1C C85A | 0.161
157 | G1C U37C | 0.128
158 | G1C U37G | 0
159 | G1C C4G | 0
160 | G1C A16C | 0.128
161 | G1C A16U | 0.111
162 | G1A C21A | 0.104
163 | G1A C21U | 0.121
164 | G1C G40U | 0.189
165 | G1C G40A | 0.111
166 | G1U C26A | 0.288
167 | G1C C61U | 0.185
